From article PMC12413468

Molecular target: Fluorescent probe peptide NH3+-NLVGRF-[DAP-FAM]-VSPVPE-COO- (human)
Assay: fluorescence polarisation

His6-tagged OSR1 CCT domain (human OSR1 433–527), sequence (O95747 433-527): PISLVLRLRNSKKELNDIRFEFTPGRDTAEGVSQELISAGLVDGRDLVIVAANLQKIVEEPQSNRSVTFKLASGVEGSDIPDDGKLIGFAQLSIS

fold decrease in peptide probe binding affinity against wild type	Kd	Substance
50 fold	–	Purified SPAK CCT domain D477Q (domain or fragment)
–	670 nM	His6-tagged SPAK CCT domain (mouse SPAK 459–556) (from UniProt Q9Z1W9 459-556) (domain or fragment)
–	1500 nM	His6-tagged OSR1 CCT domain (human OSR1 433–527) (from UniProt O95747 433-527) (domain or fragment)
